Measured values published in patent publication US11130794B2, “Bifunctional compounds” (Novo Nordisk A/S, priority 2017, dated 2021).

Molecular target: T1, hPCSK9 (Homo sapiens, UniProt Q8NBP7)
T1 construct: purchased Sino Biologicals, China
Test: C6 hPCSK9 challenge model, LDL-R expression in mouse liver (Western blot)
Format: in vivo
Details: healthy control 100%, hPCSK9 alone 0%
Method: Sixty minutes after the injection of hPCSK9, the animals are anaesthetised in isoflurane and euthanised by cervical dislocation. The liver is then quickly excised and snapfrozen in liquid nitrogen. The livers are kept at −80° C. until analysis.
The proteins are transferred to nitrocellulose membranes (iBlot 2 NC Regular stacks, novex #IB23001) according to manufacturer's instructions (Life Technology). Equal protein transfer is confirmed by Ponceau S (Sigma, P7170) staining of the membranes and the membranes are further blocked in blocking buffer (TBS-T, 2% Tween). […] Quantitative analysis of chemiluminescent signals from Western blots is done with MultiGauge software (Fujifilm).
The LDL-R expression levels were measured by Western Blot, and the expression levels compared.

T1 sequence (Q8NBP7 153-692): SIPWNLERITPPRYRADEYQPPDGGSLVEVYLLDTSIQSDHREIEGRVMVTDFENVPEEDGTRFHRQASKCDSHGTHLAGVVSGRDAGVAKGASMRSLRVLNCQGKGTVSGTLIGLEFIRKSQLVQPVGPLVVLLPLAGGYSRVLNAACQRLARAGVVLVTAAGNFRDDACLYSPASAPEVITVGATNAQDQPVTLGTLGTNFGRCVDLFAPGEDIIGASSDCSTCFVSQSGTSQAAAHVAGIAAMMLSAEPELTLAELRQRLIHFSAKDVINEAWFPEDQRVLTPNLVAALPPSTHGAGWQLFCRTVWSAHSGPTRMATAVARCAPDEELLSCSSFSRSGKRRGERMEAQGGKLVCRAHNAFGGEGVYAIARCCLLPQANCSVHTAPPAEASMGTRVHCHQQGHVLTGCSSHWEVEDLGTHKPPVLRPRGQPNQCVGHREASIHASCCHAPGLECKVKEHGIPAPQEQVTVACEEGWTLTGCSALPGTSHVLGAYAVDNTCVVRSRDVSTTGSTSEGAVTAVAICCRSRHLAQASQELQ

Percentage of baseline (%) Mean ± SEM (compound 30 nmol/kg): 100 ± 13%
Percentage of baseline (%) (inhibitor 22 nmol/kg): 157%
Substance: Alirocumab: anti-PCSK9 antibody, control molecule in the hPCSK9 challenge model
